Source: patent publication US20230220443A1, “CHARACTERIZATION OF S-ADENOSYL-L-METHIONINE-CONSUMING ENZYMES WITH 1-STEP EZ-MTASE: A UNIVERSAL COUPLED-ASSAY” (ALBERT EINSTEIN COLLEGE OF MEDICINE, priority 2017, published 2023)
Like-named read-outs stand apart in the source and are kept apart here.

Tests used:
[1] = tested on: deaminase PA3170; assay: Deamination of 5DOA by PA3170; type: biochemical, Pseudomonas aeruginosa
From the text: FIG. 3A-3C. The reaction catalyzed by deaminase PA3170 and its use as a coupling enzyme for monitoring radical SAM (RS) enzymes activity. (A) The 5′-deoxy-adenosine (5DOA) by-product of radical SAM enzyme reactions is efficiently converted into its inosyl-derivative (5DOI) by the deaminase PA3170. (B) The […] conversion is confirmed by HPLC as these two molecules have distinct retention times. The different spectral signatures between 5DOA and 5DOI (λmax1=259 nm and λmax2=249 nm, respectively) allow continuous monitoring of […] through UV-detection.

[2] = target: GNMT (Rattus norvegicus, UniProt P13255); settings: cited from earlier work
[3] = target: T1, GsSDMT (Galdieria sulphuraria, UniProt M2XPA0); assay: GsSDMT inhibition by sinefungin (UV-mode); type: biochemical; settings: pH=6.80, SAM 763 μM, sarcosine 5 mM, 195 nM GsSDMT; read-out: inhibition constant Ki
T1 sequence (M2XPA0 2-297): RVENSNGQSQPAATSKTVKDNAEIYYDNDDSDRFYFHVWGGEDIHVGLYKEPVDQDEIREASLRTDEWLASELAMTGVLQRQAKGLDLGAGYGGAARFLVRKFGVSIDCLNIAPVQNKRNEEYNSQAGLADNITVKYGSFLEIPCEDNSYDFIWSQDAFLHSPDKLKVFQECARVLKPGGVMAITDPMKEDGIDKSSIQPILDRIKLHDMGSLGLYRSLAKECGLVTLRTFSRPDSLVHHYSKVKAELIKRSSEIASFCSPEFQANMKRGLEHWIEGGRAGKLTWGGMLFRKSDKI
Procedure: Briefly, kinetic parameters were determined at 20° C. in a UV-Star 96-well flat bottom plate (Greiner Bio-One, #655801) by continuous monitoring of absorbance at 263 nm using a SpectraMax M5 instrument (Molecular Devices). The 100-μL reaction mixtures from a set of two rows contained 100 mM phosphate buffer pH=6.80, 1 mM βME, 5% glycerol, […] MgCl2, 4 μM coupling deaminase TM0936, 195 nM GsSDMT, saturating level of SAM (763 μM) and various sinefungin concentrations (0.8-244 μM). In the first row, the sarcosine acceptor was omitted to account for background signal (i.e. natural catabolism of sinefungin and SAM decomposition). The methyltransfer reactions started upon addition of sarcosine (5 mM saturating final concentration). Volumes (60-μL) were transferred onto plate and absorbance signals were recorded. The initial rates of the reactions were corrected using data from first row experiments and plotted against sinefungin concentrations. Fit to the following Eq. 7 provided corresponding inhibition constant (Ki):
where V and V0 are the initial velocity with and without inhibitor, respectively. The Michelis constant for SAM substrate is depicted as Km and [SAM] is the concentration of this same molecule. The inhibition constant for sinefungin is represented by Ki and [SIN] is the concentration of this inhibitor. The parameter γ is the Hill coefficient. […]

[4] = target: T2, NcDIM-5 (Neurospora crassa, UniProt Q8X225); settings: literature values; cited from earlier work
T2 construct: GST; made in house
T2 sequence (Q8X225 1-331): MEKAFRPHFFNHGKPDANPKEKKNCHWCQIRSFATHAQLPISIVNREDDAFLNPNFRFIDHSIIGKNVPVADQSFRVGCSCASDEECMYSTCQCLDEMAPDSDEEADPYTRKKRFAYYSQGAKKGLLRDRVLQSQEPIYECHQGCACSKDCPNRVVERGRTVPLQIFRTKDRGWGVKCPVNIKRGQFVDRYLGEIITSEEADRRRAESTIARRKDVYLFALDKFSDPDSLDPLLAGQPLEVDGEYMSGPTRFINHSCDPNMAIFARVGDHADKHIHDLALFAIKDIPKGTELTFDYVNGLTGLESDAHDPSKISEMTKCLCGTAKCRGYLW

[5] = target: T2, NcDIM-5; assay: Reported (literature) NcDIM-5 kinetics; type: biochemical; settings: from reported values lit. (53)
[6] = target: T3, CePRMT5 (Caenorhabditis elegans, UniProt P46580); settings: lit. (46); cited from earlier work
T3 construct: made in house
T3 sequence (P46580 1-734): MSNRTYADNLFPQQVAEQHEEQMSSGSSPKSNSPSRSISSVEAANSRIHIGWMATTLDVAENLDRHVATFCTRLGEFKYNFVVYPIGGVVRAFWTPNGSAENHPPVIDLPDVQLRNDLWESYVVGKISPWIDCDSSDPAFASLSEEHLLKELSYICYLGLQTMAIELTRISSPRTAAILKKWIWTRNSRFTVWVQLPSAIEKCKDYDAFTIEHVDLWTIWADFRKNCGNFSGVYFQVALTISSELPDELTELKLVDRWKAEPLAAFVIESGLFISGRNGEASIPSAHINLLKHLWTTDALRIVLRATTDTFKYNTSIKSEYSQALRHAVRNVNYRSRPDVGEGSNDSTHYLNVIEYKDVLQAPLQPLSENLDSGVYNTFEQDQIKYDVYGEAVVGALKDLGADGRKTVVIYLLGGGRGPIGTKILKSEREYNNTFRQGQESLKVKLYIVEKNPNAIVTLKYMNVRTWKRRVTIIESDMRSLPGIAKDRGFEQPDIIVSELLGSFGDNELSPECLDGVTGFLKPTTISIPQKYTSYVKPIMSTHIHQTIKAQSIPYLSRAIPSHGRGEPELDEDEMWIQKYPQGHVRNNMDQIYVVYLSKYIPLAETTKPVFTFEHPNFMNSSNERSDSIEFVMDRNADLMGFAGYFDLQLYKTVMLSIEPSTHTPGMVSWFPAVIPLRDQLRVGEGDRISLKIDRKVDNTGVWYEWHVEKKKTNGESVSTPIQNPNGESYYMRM

[7] = target: T4, TbPRMT7 (Trypanosoma brucei brucei, UniProt Q582G4); assay: Fluorescence-based coupled assay, TbPRMT7 with 8-aza-SAM cofactor; type: biochemical; settings: 8-aza-SAM 25.0 μM, pH=7.60, fluorescence-mode
T4 construct: made in house
Procedure: Briefly, the 250-μL reaction mixtures from a same row contained 25 mM phosphate buffer pH=7.60, 1 mM βME, 10% glycerol, 4 μM coupling deaminase TM0936, 805.2 nM TbPRMT7 and various peptide concentrations (0-144.55 μM. The first well contained only 8-aza-SAM without any coupling enzyme, nor methyltransferase; in the second well, peptide acceptor was omitted to account for background signal—natural decomposition of 8-aza-SAM). […]

[8] = target: T4, TbPRMT7; assay: 1-Step EZ-MTase UV-based coupled assay, TbPRMT7 kinetics (incl. ionic strength); type: biochemical; settings: pH=7.60, 25 mM phosphate, co-substrate saturating
Procedure: Briefly, the 250-μL reaction mixtures from a same row contained 25 mM phosphate buffer pH=7.60, 1 mM βME, 10% glycerol, 4 μM coupling deaminase TM0936, 1.0 μM TbPRMT7 and various peptide concentrations (16.6-243.3 μM; in the first well, peptide acceptor was omitted to account for background signal—natural decomposition of SAM). Reactions started upon addition of SAM (25.8 μM saturating final concentration) and absorbance was recorded. […] Fit to the Michaelis-Menten model (Eq. 5) provided corresponding kinetic parameters:
Briefly, the measurements consisted of two experimental subsets: MTase reactions (both SAM and peptide added) and MTase blanks (SAM was added without peptide to account for natural SAM decomposition). The 250-μL reaction mixtures from a same row contained 25 mM phosphate buffer pH=7.60, 1 mM βME, 10% glycerol, 4 μM coupling deaminase TM0936, 402 nM TbPRMT7 and various SAM concentrations (1.53-20.0 μM). […] Initial rates were first corrected for background signal, then plotted against SAM concentrations and fitted to the Morrison kinetic model to yield corresponding kinetic parameters.
(§1) Kinetic behavior for 8-aza-SAM against MTases (acceptor sat.)—Briefly, kinetic parameters were determined at 20° C. in a UV-Star 96-well flat bottom plate (Greiner Bio-One, #655801) by continuous monitoring of absorbance at 282 nm using a SpectraMax M5 instrument (Molecular Devices). As for SAM experiments, the measurements consisted of two experimental subsets: MTase reactions (both 8-aza-SAM and acceptor added) and MTase blanks (8-aza-SAM was added without acceptor to account for natural 8-aza-SAM decomposition). The 250-μL (60-μL) reaction mixtures from a same row contained 50 mM phosphate buffer pH=7.60 (7.80), 1 mM βME, 10% glycerol (5% glycerol, 100 μM MgCl2), 4 μM coupling deaminase TM0936, either 1.5 μM CePRMT5 or 402 nM TbPRMT7 (or 610 nM GsSDMT) and various 8-aza-SAM concentrations. […] Initial rates were first corrected for background signal, then plotted against 8-aza-SAM concentrations and fitted to the Michaelis-Menten equation to yield corresponding kinetic parameters. The kinetic data from CePRMT5 were fit to the following Eq. 6 to reflect substrate inhibition observed at higher 8-aza-SAM concentration:
Experiments were conducted following TbPRMT7 protocol above. Briefly, the 250-μL reaction mixtures from a same row contained either 25, 50, 75 or 100 mM phosphate buffer pH=7.60, 1 mM βME, 10% glycerol, 4 μM coupling deaminase TM0936, 1.0 μM TbPRMT7 and various peptide concentrations (16.6-243.3 μM; in the first well, peptide acceptor was omitted to account for background signal—natural decomposition of SAM). Reactions started upon addition of SAM (25.8 μM saturating final concentration) and absorbance was recorded. […] The four fits to the Michaelis-Menten equation (kcat fixed at 29 h^−1) provided corresponding Km values and established impact of ionic strength onto this kinetic parameter.

[9] = target: T3, CePRMT5; assay: 1-Step EZ-MTase UV-based coupled assay, CePRMT5 kinetics; type: biochemical; settings: pH=7.60, co-substrate saturating, 4 μM TM0936; 263 nm (282 nm for 8-aza-SAM)
Procedure: The 250-μL reaction mixtures from a same row contained 50 mM phosphate buffer pH=7.60, 1 mM βME, 10% glycerol, 4 μM coupling deaminase TM0936, 300 nM CePRMT5 and various peptide concentrations (5-180 μM; in the first well, peptide acceptor was omitted to account for background signal—natural decomposition of SAM). The methyltransfer reactions started upon addition of SAM (25 μM saturating final concentration) and absorbance was recorded.
The 250-μL reaction mixtures from a same row contained 50 mM phosphate buffer pH=7.60, 1 mM βME, 10% glycerol, 4 μM coupling deaminase TM0936, 300 nM CePRMT5 and various SAM concentrations (2.35-47.0 μM). […] Initial rates were first corrected for background signal, then plotted against SAM concentrations and fitted to the Morrison kinetic model to yield corresponding kinetic parameters.
as §1, with “parameters.” for “parameters. The kinetic data from CePRMT5 were fit to the following Eq. 6 to reflect substrate inhibition observed at higher 8-aza-SAM concentration:”

T4 sequence (Q582G4 whole entry): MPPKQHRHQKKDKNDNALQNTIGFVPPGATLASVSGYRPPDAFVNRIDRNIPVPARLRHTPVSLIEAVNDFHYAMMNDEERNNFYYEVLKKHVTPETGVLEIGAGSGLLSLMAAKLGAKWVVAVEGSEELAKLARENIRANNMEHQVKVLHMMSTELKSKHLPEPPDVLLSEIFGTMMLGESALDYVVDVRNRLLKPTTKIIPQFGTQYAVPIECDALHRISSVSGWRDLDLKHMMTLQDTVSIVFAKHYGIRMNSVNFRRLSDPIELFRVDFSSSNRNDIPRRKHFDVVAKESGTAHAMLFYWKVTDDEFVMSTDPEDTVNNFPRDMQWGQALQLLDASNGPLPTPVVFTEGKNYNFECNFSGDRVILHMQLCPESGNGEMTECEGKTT
Chain of GNMT (P13255 whole entry): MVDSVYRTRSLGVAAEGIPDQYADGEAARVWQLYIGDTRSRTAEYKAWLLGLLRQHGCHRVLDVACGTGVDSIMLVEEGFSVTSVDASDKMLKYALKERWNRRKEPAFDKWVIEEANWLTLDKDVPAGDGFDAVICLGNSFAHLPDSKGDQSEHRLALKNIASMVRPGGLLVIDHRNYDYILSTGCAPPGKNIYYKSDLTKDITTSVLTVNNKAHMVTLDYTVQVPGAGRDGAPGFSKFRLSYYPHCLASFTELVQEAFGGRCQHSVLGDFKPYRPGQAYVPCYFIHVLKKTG

With `C[C@H]1O[C@@H](n2cnc3c(N)ncnc32)[C@H](O)[C@@H]1O` [5DOA, 5′-deoxy-adenosine] the “conversion into 5DOI by PA3170” value [1] was “full conversion”.
In the case of `NCC(=O)O` [glycine], the Km [2] is listed as 130 µM.
With `Nc1ncnc2c1ncn2[C@@H]1O[C@H](C[C@@H](N)CC[C@H](N)C(=O)O)[C@@H](O)[C@H]1O` [sinefungin] the Ki [3] was 1800 ± 400 nM.
In the case of “H3(1-20): H3(1-20) peptide harboring a N-terminal biotinylation, from previous report”, the Km [4] is given as 7.4 µM, the kcat [4] is given as 0.0383 s⁻¹ and the overall catalytic efficiency [5] is given as 19 µM⁻¹ h⁻¹.
For “H4(1-20): H4(1-20) peptide substrate for CePRMT and TbPRMT7, purchased from GenScript”, the Km [6] is given as 54 ± 4 µM, the kcat [6] is given as 0.00794 ± 0.00019 s⁻¹ and the Km [7] is given as 71 ± 8 µM. For the same compound, the kcat [7] was 0.0108 ± 0.00056 s⁻¹, the Km [8] was 39 ± 3 µM and the kcat [8] was 0.00783 ± 0.00019 s⁻¹. The Km [9] was 26 ± 2 µM and the kcat [9] was 0.00914 ± 0.00022 s⁻¹.
